Source: PMC9388160, “A multidomain connector links the outer membrane and cell wall in phylogenetically deep-branching bacteria” (Proceedings of the National Academy of Sciences of the …, 2022)

What was measured:
DR_0644 = DR_0644 (uncharacterized protein, UniProt Q9RWM2) (D. radiodurans); test: cryo-EM structure; single-particle cryo-EM of SlpA purified from D. radiodurans, in 20 mM Hepes/NaOH pH 7.5, 150 mM NaCl, 0.02% DDM; 4.45 mg/mL; C3 symmetry; global resolution 3.25 Å
[1] = molecular target: the molecule itself; test: as above

| stoichiometry N (DR_0644) | Molecule | stoichiometry N [1] |
| --- | --- | --- |
| 3 | DR_0644 (uncharacterized protein, UniProt Q9RWM2) (natural protein) | – |
| – | SlpA (Deinococcus radiodurans outer membrane protein, UniProtKB Q9RRB6) (natural protein, D. radiodurans, UniProt Q9RRB6 23-1167, looked up, SlpA, D. radiodurans, UniProtKB Q9RRB6; wild-type protein purified from the bacterium; The map is well resolved from residue 215 onwards; Native, untagged protein in DDM micelles; it models the periplasmic segment from residue 20; also called SlpA protein complex; SlpA trimer; source: purified from D. radiodurans (ATCC BAA816): lysozyme treatment, DDM extraction, HiTrap-Q, Superose 6 Increase) APVSAPQVPALTDVPAGHWAKDAIDRLVSRGVILGYPDGTFRGTQNLTRYEAAIIIARLLDQMRDGETPAGMTAEDMTALQNAIQELAADLAALGVRVSDLEANAVSKDDFARLEARIEEVAAAGGEQGATEALQGQIDDLTARVDEYDALRADVDDNASSIAALNDLTVLLNQDILDLQDRVSAVEAAQADFVQRSDFDALGGRVTTVETRVETVNNSLTGRIAALERNAFSVKPSLTIGYSVSRTSRNFDVDRLFPLNADGTVANNAFTSGGIDTDTGAQRRDFGDFGNASDPVVAGAAGLYGFADGVSYTVYFTDGSTATFDGLNPADYKVPTGKVIDTTKGRNGFGFNNLARYKEGSTDIGISLGFDTSGQFSQVTSGTGGSLFSTAGRLQVNQIDLNFGLVTGLPSDAYVDTNGNGKKDDGEATGRGTYLGSGGTAAILRDPAGNVYRPVFFRFKNATTQFSVGNNPVIVTLGQQQKFYFSDYVFDNNYDGRGDGFTVTVDGSNVPVIGAWKPQIKGVYGSRSGLDGTAEAGYGVYYRGVRAQITPVGTLTAGIHYAQEGRDMFGAAQNTTSTPSDVTTYGADLHGKAFGVELHSEYATSRVRPNTANAAVQTSNAFYARVATRKDNLAFDLNTPAAKFGNDTFGVSLYDLNYRKIDAGYNNVAGISEYGYGSYSRTSAQNIAYNPDTGVTAPFANLDRQAYTDANNDGTSDRNADGTVVATNTKIGQMGFGVKAAANLGPVAIGGYYDTSTGANGDNANRMTEAGGSAKVAYSIFSLRGTYNTLDSNRPQIYRDAAGTQIIGDAKVRRYAVQADVTPGLGLFVGAYYRDVNVNGVRSTTDRGLLGRGYLASSFEPGVGNNAYRTGLRCADNNFGTGTRDIDGVGGVLNPAVNLDQSRTATCFTSYGVEAGHAGDNANALVKDLFFRVGYSRVYVPTTATATTGDFSGSVTYGDARYDRKVGVANVRLAGSFSTTNTQLDSRPAGTRGAVGLIVRTDPLENVPFRPQFNGQVGYYTADNRVAAGNYNANATKYGAGVVLNDFLLPQTKIGVRYDGYMAQNRQYTPFDGDGTQGYFSDANNNRRTNLNGVYVEGAYQDLIFSYGTYTLSQKDLNGVEYGSGINNGQPARGQTFKISYKVNF | 3 |
